Measured values from patent publication US20120015841A1.

Molecular target: human GC-C (guanylate cyclase C) stably expressed in 293T cells (human) (UniProt P25092)
Test: cell-based or functional assay

human GC-C (guanylate cyclase C) stably expressed in 293T cells (human), sequence (P25092 24-1073): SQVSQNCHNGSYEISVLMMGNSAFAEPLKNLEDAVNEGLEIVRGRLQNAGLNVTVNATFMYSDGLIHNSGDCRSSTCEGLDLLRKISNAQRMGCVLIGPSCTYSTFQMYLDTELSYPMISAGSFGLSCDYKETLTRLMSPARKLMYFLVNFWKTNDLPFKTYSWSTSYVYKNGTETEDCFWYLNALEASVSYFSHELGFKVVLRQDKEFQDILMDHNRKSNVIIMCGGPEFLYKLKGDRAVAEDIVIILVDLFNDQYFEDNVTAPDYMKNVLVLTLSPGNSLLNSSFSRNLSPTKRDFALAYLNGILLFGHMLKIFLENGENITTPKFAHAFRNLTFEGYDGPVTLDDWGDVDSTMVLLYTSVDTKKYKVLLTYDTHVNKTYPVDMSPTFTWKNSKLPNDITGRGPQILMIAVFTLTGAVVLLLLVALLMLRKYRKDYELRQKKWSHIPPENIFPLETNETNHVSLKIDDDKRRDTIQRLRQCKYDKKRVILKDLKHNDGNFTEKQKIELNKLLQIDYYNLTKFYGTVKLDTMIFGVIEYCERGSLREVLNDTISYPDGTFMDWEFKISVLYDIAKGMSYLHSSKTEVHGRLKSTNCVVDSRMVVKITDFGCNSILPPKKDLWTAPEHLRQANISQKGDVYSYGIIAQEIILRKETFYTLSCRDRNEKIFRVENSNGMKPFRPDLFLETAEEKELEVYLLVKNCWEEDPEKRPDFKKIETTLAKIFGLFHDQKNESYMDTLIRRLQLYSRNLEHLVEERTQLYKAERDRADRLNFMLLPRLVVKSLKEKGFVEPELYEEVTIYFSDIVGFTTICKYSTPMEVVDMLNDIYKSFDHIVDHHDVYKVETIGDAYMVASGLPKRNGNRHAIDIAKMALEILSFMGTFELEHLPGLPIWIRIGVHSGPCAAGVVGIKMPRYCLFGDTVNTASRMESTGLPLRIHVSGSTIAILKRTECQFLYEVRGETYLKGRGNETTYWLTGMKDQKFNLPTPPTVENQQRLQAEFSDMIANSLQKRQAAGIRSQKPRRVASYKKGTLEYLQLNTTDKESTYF

- EC50 of the cGMP response (absorbance, Direct Cyclic GMP Enzyme Immunoassay Kit) to a guanylin dose-response, 30 min, GC-C-expressing 293T cell line: 1.1 nM
- cGMP level in the GC-C-expressing cell line treated with low concentrations of guanylin: 6 pmol/mL
Substance: guanylin (peptide)
